Biological target: T1, human ICOS (Inducible T-cell COStimulator) receptor on peripheral CD4 and CD8 T cells (human, UniProt Q9Y6W8 21-199)
T1 construct: Native ICOS on T cells of treated subjects; also called ICOS receptor; CD278
T1 sequence: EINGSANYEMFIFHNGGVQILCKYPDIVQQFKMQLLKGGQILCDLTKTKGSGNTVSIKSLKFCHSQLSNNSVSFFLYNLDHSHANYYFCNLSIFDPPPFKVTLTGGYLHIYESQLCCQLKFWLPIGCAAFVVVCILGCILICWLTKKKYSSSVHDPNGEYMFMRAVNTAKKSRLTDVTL
Assay: ICOS receptor occupancy on peripheral CD4 and CD8 T cells of dosed subjects (clinical pharmacodynamic analysis)

binding result: binds
B1: H2L5 hIgG4PE (antibody, V domains shown)
VH: QVQLVQSGAEVKKPGSSVKVSCKASGYTFTDYAMHWVRQAPGQGLEWMGLISIYSDHTNYNQKFQGRVTITADKSTSTAYMELSSLRSEDTAVYYCGRNNYGNYGWYFDVWGQGTTVTVSS
VL: EIVLTQSPATLSLSPGERATLSCSASSSVSYMHWYQQKPGQAPRLLIYDTSKLASGIPARFSGSGSGTDYTLTISSLEPEDFAVYYCFQGSGYPYTFGQGTKLEIKR
notes: Humanized IgG4PE (S228P, L235E) monoclonal antibody; also called H2L5 IgG4PE; feladilimab
